Legend:
[1] = system: Primary human cardiac fibroblasts; experiment: IL-11-stimulated fibroblasts with Rapamycin, Wortmannin or U0126, western blot; type: cell-based; settings: IL11 10 ng/ml 24 hours; Rapamycin 10 nM, Wortmannin 1 μM, U0126 10 μM
Experimental: FIG. 18. Western blot image showing the levels of p-LKB1, LKB1, p-AMPK, AMPK in primary human cardiac fibroblasts that are unstimulated (BL+DMSO) or stimulated with IL11 for 24 hours in the presence of either DMSO, Rapamycin, Wortmannin, or U0126. IL11(10 ng/ml), Rapamycin (10 nM), Wortmannin (1 μM), U0126 (10 μM).
Primary human cardiac fibroblasts were stimulated with IL-11 for 24 hours in the presence of either DMSO, Rapamycin (mTOR inhibitor), Wortmannin (phosphoinositide 3-kinases (PI3K) inhibitor), or U0126 (MEK1/2 inhibitor) and the levels of p-LKB1 and p-AMPK were measured by western blot (FIG. 18).

[2] = system: Primary human hepatic stellate cells; experiment: IL-11 stimulation in the presence of DMSO or U0126, western blot; type: cell-based; settings: IL-11 24 hours; U0126 10 μM
Experimental: FIG. 21. Western blot image showing the levels of p-ERK, ERK, p-P90RSK, P90RSK, p-LKB1, LKB1, p-AMPK, AMPK, p-mTOR, mTOR, p-p70S6K, p70S6K, p-S6RP, S6RP, SMA, and GAPDH in primary human hepatic stellate cells that are unstimulated (BL+DMSO) or stimulated for 24 hours with IL11 in the presence DMSO or U0126 (10 μM).
(§1) Primary human hepatic stellate cells and human hepatocytes were stimulated for 24 hours with IL-11 in the presence DMSO or U0126. As discussed in Example 4.4, the inventors observed that IL-11 treatment stimulates p-mTOR, p-70S6K and p-S6RP. In line with the inventors' hypothesis, administration of U0126 to IL-11-stimulated cells prevents ERK-mediated inactivation of LKB1/AMPK that stops IL11-induced mTORC1/P70S6K activation (FIG. 21 and FIG. 22, respectively).

[3] = system: human hepatocytes; experiment: as above; type: cell-based; settings: IL-11 24 hours; U0126 10 μM
Experimental: FIG. 22. Western blot image showing the levels of p-ERK, ERK, p-P90RSK, P90RSK, p-LKB1, LKB1, p-AMPK, AMPK, p-mTOR, mTOR, p-p70S6K, p70S6K, p-S6RP, S6RP in primary human hepatocytes that are unstimulated (BL+DMSO) or stimulated for 24 hours with IL11 in the presence DMSO or U0126 (10 μM).
as §1

[4] = system: rheumatoid synovial cells; settings: upon treatment; cited from earlier work
[5] = system: Primary human hepatic stellate cells (HSCs); experiment: Increasing concentrations of IL-11 or IL-6, western blot p-LKB1/p-AMPK; type: cell-based; settings: 24 hours; 1.25-20 ng/ml, even at the highest concentration
Experimental: (§2) FIG. 23. Western blot image showing the levels of p-LKB1, LKB1, p-AMPK, AMPK in primary human hepatocytes or primary human hepatic stellate cells that are unstimulated (BL) or stimulated for 24 hours with increasing concentrations (1.25, 2.5, 5, 10 or 20 ng/ml) of IL-11 or IL-6.
(§3) Primary human hepatic stellate cells (HSCs) and human hepatocytes were stimulated for 24 hours with increasing concentrations (1.25-20 ng/ml) of IL-11 or IL-6. […] The effect of IL-11 on these markers is observable at concentrations as low as 1.25 ng/ml in both HSCs and hepatocytes.

[6] = system: human hepatocytes; experiment: as above; type: cell-based; settings: 24 hours; 1.25-20 ng/ml, even at the highest concentration
Experimental: as §2, §3

[7] = system: AML12 cells; experiment: In vitro model of senescence induction, qRT-PCR at day 7; type: cell-based, mouse; settings: 2 ug/ml from day 2, H2O2 0.75 mM, vs isotype-matched control IgG
Experimental: Senescent hepatic mouse cells were generated from cells of the mouse hepatocyte cell line AML12 as described in Tripathi et al., Star Protocols (2020) 1:100064 (hereby incorporated by reference in its entirety).
Briefly, AML12 cells were grown to 50% confluency and senescence was induced by treating the cells with a sub-lethal concentration of H2O2 (0.75 mM) for 1 h, followed by 23 h recovery per day, for a total of 7 days (as described in Tripathi et al., Star Protocols (2020) 1:100064). From day 2 onwards, 2 ug/ml of X209/X203 or isotype-matched control IgG was added to the cultures during the 23h recovery period.
Total RNA was isolated at day 7, and levels of p21 (Cdkn1a), […], Il11 and Tgfb gene expression were evaluated by qRT-PCR. Briefly, total RNA was extracted from cell lysates using Trizol (Invitrogen) followed by RNeasy column (Qiagen) purification. cDNAs were synthesized with iScript™ cDNA synthesis kit (Bio-Rad) according to manufacturer's instructions. Gene expression analysis was performed with either TaqMan (Applied Biosystems) or fast SYBR green (Qiagen) using the StepOnePlus Real-Time PCT System (Applied Biosystems) over 40 cycles. Expression data for p21 (Cdkn1a), Il1b, Il11 and Tgfb were normalised to Gapdh expression, and fold change was calculated using the 2^−ΔΔCt method.

[8] = system: Primary human cardiac fibroblasts; experiment: IL11 or TGFβ1 stimulated fibroblasts with X203, X209 or IgG, western blot; type: cell-based; settings: IL11/TGFβ1 10 ng/ml, 24 hours; antibody 2 μg/ml
Experimental: FIG. 19. Western blot image showing the levels of p-ERK, ERK, p-P90RSK, P90RSK, p-LKB1, LKB1, p-AMPK, AMPK, p-mTOR, mTOR, p-p70S6K, p70S6K, p-S6RP, S6RP, SMA, and GAPDH in primary human cardiac fibroblasts that are unstimulated (BL) or stimulated for 24 hours with either IL11 or TGFβ1 in the presence of X203, X209, or IgG (11E10) isotype control. IL11/TGFβ1 (10 ng/ml), IgG/X203/X209 (2 μg/ml).
Primary human cardiac fibroblasts were stimulated with IL11 or TGFβ1, or unstimulated (BL).

[9] = system: Primary human hepatocytes; experiment: Hepatocytes stimulated with IL-11, BSA or palmitate with X203, X209 or IgG, western blot; type: cell-based; settings: 24 hours; antibody 2 μg/ml; IL11 10 ng/ml or palmitate 0.5 mM
Experimental: FIG. 20. Western blot image showing the levels of p-ERK, ERK, p-P90RSK, P90RSK, p-LKB1, LKB1, p-AMPK, AMPK, p-Acetyl-CoA Carboxylase (p-ACC), Acetyl-CoA Carboxylase (ACC), p-mTOR, mTOR, p-p70S6K, p70S6K, p-S6RP, S6RP in primary human hepatocytes that are unstimulated (BL) or stimulated for 24 hours with either IL11, 0.5% BSA, or palmitate (saturated fatty acid) in the presence of X203, X209, or IgG (11E10) isotype control. IL11 (10 ng/ml), IgG/X203/X209 (2 μg/ml), palmitate (0.5 mM) conjugated in free BSA (0.5% BSA solution) in the ratio of 6:1.
Primary human hepatocytes (stimulated with IL-11, BSA or palmitate, or unstimulated) were treated with X203 (anti-IL-11 antagonist antibody) and X209 (anti-IL-11Rα antagonist antibody). […] Treatment with X203 or X209 essentially reverses the effect of palmitate stimulation on these markers to the levels observed in the unstimulated control.

[10] = system: AML12; experiment: Senescence prevention experiment, qPCR at day 10; type: cell-based, mouse; settings: 2 μg/ml during recovery period, vs IgG
Experimental: FIG. 24. (24A) Schematic of senescence prevention experiment for data shown in B-F. Senescent AML12 were generated by treating the cells with a sub-lethal concentration of H2O2 (0.75 mM) for 1 hour, followed by 23 hours recovery per day, for 7 days as described by Tripathi et. al. (2020). IgG/X209 (2 μg/ml) was added into the cultures during the 23 hours recovery period for 10 days; cells were harvested at day 10 for RNA extraction and subsequent qPCR experiments. Relative mRNA expression of (24B) Cdkn2a (p16), (24C) Cdkn1a (p21), (24D) Il1β, (24E) Il8, and (24F) Il11.
Briefly, senescent AML12 were generated by treating the cells with a sub-lethal concentration of H2O2 as described by Tripathi et. al. (2020) STAR Protocols 1 (2): 100064. IgG/X209 (2 μg/ml) was added into the cultures during the 23 hours recovery period for 10 days. Relative mRNA expression of Cdkn2a (p16), Cdkn1a (p21), Il1β, Il8, and Il11, as measured by qPCR is shown in FIGS. 24B, 24C, 24D, 24E and 24F, respectively. Markers of senescence (P16 and p21) and markers of inflammation (IL-1b, IL-11 and […]) are diminished in cells that have undergone IL-11-mediated signalling antagonism by X209.
(§4) Senescent AML12 were generated by treating the cells with a sub-lethal concentration of H2O2 (0.75 mM) for 1 hour, followed by 23 hours recovery per day, for 7 days as described (Tripathi, Yen, and Singh 2020, STAR Protocols 1 (2): 100064). For prevention study, AML12 cells were treated with 2 ug/ml of either IgG or X209 during the recovery period of the senescence induction stage (from day 1 to day 7); cells were harvested for total RNA collection at day 10. For reversal study, senescence was first induced for seven days followed by 2 ug/ml of IgG, X203, or X209 treatment for 3 days; cells were harvested for total RNA collection at day 10.
(§5) Total RNA was extracted from AML12 or snap-frozen tissues using Trizol (Invitrogen) and RNeasy Mini Kit (Qiagen). […] using iScript cDNA Synthesis Kit (Biorad). Gene expression analysis was performed on duplicate samples with either TaqMan (Applied Biosystems) for Il11 (Mm00434162) or fast SYBR green (Qiagen) technology using StepOnePlus™ (Applied Biosystem) for Ccl2, Ccl5, Gapdh, Il1β, Il6, Il8, p16, p21, Tnfα, over 40 cycles. Expression data were normalized to GAPDH mRNA expression and fold change was calculated using 2^−ΔΔct method.

[11] = system: AML12; experiment: Senescence reversal experiment, qPCR at day 10; type: cell-based, mouse; settings: 2 μg/ml for 72 hours after 7 days senescence induction; vs IgG
Experimental: FIG. 25. (25A) Schematic of senescence reversal experiment for data shown in B-D. Senescent AML12 were generated for 7 days as described above. IgG/X203/X209 (2 μg/ml) was added into the cultures at the end of senescence induction period for 72 hours; cells were harvested at day 10 for RNA extraction and subsequent qPCR experiments. Relative mRNA expression of (25B) Cdkn1a (p21), (25C) Il1β, and (25D) Il11.
Briefly, senescent AML12 were generated for 7 days as described above, but IgG/X203/X209 (2 μg/ml) was added into the cultures at the end of senescence induction period for 72 hours.
as §4, §5

Molecule: N#CC(=C(/N)Sc1ccccc1N)/C(C#N)=C(\N)Sc1ccccc1N [U0126]
- level of p-AMPK [1]: increases
- level of p-LKB1 [1]: decreases
- ERK-mediated inactivation of LKB1/AMPK [2]: prevents
- IL11-induced mTORC1/P70S6K activation [2]: stops
- ERK-mediated inactivation of LKB1/AMPK [3]: prevents
- IL11-induced mTORC1/P70S6K activation [3]: stops

Molecule: COc1ccc2c(c1)c(CC(=O)O)c(C)n2C(=O)c1ccc(Cl)cc1 [indomethacin, reference compound]
- expression of IL-11 [4]: reduction

Molecule: IL-6: cytokine used as comparator stimulus to IL-11
- inactivation of LKB1 or activation of AMPK [5]: does not induce
- inactivation of LKB1 or activation of AMPK [6]: does not induce

Molecule: interferon-gamma: interferon-gamma (IFNγ)
- expression of IL-11 [4]: reduction

B1: X209: mouse anti-mouse IL-11Rα IgG antagonist antibody; VH SEQ ID NO:24, VL SEQ ID NO:25 (antibody, V domains shown)
VH: QVQLQQPGAELVRPGSSVKLSCKASGYTFTNYWMHWLKQRPVQGLEWIGNIGPSDSKTHYNQKFKDKATLTVDKSSSTAYMQLNSLTSEDSAVYYCARGDYVLFTYWGQGTLVTVSA
VL: DIVLTQSPATLSLSPGERATLSCRASQSISNNLHWYQQKSHEAPRLLIKYASQSISGIPARFSGSGSGTDFTLSFSSLETEDFAVYFCQQSYSWPLTFGQGTKLEIK
- gene expression of Il11 [7]: significantly reduce
- gene expression of Il11b [7]: significantly reduce
- gene expression of Tgfb [7]: significantly reduce
- gene expression of p21 (Cdkn1a) [7]: significantly reduce
- level of phosphorylation of markers ERK, p90RSK, LKB1, mTOR, p70S6K and S6RP [8]: significantly reduce
- levels of p-AMPK and p-ACC [9]: increase
- levels of phosphorylated markers p-ERK, p-p90RSK, p-LKB1, p-mTOR, p-p70S6K and p-S6RP [9]: reduces
- marker of inflammation IL-1b mRNA [10]: diminished
- marker of inflammation IL-6 [10]: diminished
- marker of inflammation IL-11 mRNA [10]: diminished
- marker of senescence P16 (Cdkn2a) mRNA [10]: diminished
- marker of senescence p21 (Cdkn1a) mRNA [10]: diminished
- inflammation marker IL-1 b [11]: significantly reduce
- inflammation marker IL-11 [11]: significantly reduce
- senescence marker p21 [11]: significantly reduce
